Laboratory results from US20220389113A1, “BINDING PROTEINS TO CUB DOMAIN-CONTAINING PROTEIN (CDCP1)” (COMMONWEALTH SCIENTIFIC AND INDUSTRIAL RESEARCH ORGANISATION, priority 2019, published 2022).

Tests used:
[1] = tested on: TKCC05 cells and normal human pancreatic stellate cells; assay: Co-culture assay of TKCC05 cells and normal human pancreatic stellate cells; type: cell-based
Experimental: For survival assays, cells (5,000/well) were plated in 96-well plates and allowed to attach for 24 h. Cells were then treated for 24 h with 10D7 (5 μg/ml) or isotype control IgG (5 μg/ml) before addition of gemcitabine (0.02 to 500 nM) and incubation for another 72 h. In assays assessing the effect of cytotoxin-conjugated antibodies, cells were treated for 12 h with 10D7-MMAE, IgG-MMAE, 10D7 or IgG (0.0625 to 1.0 μg/ml) then washed before the media was replaced with standard growth medium for 72 h. The relative number of viable cells was then measured by adding the CellTiter AQueous One Solution Reagent to each well and measuring absorbance at 490 nm as described above. In co-culture assays, mKO2 expressing TKCC05 PDAC cells (2,000 cells/well) were co-cultured with GFP expressing normal human pancreatic stellate cells (2,000 cells/well) for 24 h in a 1:1 mixture of TKCC05 and hPSC growth medium before treatments with 10D7-MMAE, IgG-MMAE, 10D7 or IgG (0.0625 to 1.0 μg/ml), IgG or 10D7 (1 μg/ml) or PBS as above. Cells were imaged by wide-field fluorescence microscopy and the total area of confluence for each cell type was quantified by image analysis using Image J software.
The generated antibody-drug conjugate (ADC), 10D7-MMAE, has an average drug-antibody ratio (DAR) of 4.5 to 4.7, and retains the functional ability to induce phosphorylation of CDCP1 and Src (see Example 7). […]

[2] = tested on: p-CDCP1-Y734 in HEY cells; assay: Western blot of CDCP1-Y734 and Src-Y416 phosphorylation in HEY cells; type: cell-based, human; settings: 5 μg/ml
Experimental: Cells were biotinylated (4° C., 1 h) with cell-impermeant EZ-link NHS-SS Biotin (1.22 mg/ml; Thermo) then PBS washed and lysed in buffer containing 20 mM HEPES, 150 mM NaCl, 1 mM EDTA, 1% Triton X-100, 1×Complete protease inhibitor cocktail (PIC) and phosphatase inhibitors (2 mM Na3VO4, 10 mM NaF). After centrifugation the supernatant was incubated (15 minutes, 4° C.) with ImmunoPure immobilized streptavidin beads (Thermo). After pelleting, the supernatant containing intracellular proteins was transferred to a separate tube, and the beads washed in lysis buffer containing PIC and phosphatase inhibitors. Lysates and proteins separated by cell surface biotinylation (40 μg/lane) were examined by Western blot analysis as described (He Y, et al., (2016) Oncogene. 35(4):468-78).
Since Src tyrosine phosphorylation is important in CDCP1-mediated signal transduction (Casar B, et al., (2012) Oncogene. 31(35):3924-38), the inventors next examined this in antibody induced processing of CDCP1. […] Live-cell images of the four cell lines were analysed to determine the distance moved (track length) by individual CDCP1^GFP positive puncta during mAb-induced internalization (FIG. 5C, left). […]

[3] = tested on: PANC-1 cells; assay: Survival assay with cytotoxin-conjugated antibodies, PANC-1; type: cell-based, human; settings: PANC-1, 1 μg/ml, 12 h treatment then 72 h growth
Experimental: The relative number of viable cells was then measured by adding the CellTiter AQueous One Solution Reagent to each well and measuring absorbance at 490 nm as described above. […] Cells were imaged by wide-field fluorescence microscopy and the total area of confluence for each cell type was quantified by image analysis using Image J software.

B1: 10D7-MMAE (conjugate)
VH: EVQLQQFGAELVKPGASVKISCKASGYSFSDFNIEWLKQSHGKSLEWIGDINPNYDSTNYNQKFKGRATLTVDKSSSTAYMEVRSLTSEDTAVYYCARLGYGYAMDYWGQGTSVTVSS
VL: NIVMTQSPQSMSMSVGERVTLSCKASENVGAYVSWFQQKPDQSPKLLILAASNRYTGVPARFIGSGSATDFTLTISSVQAEDLADYHCGQSYTYPYTFGGGTKLEIKRADAAPTVS
response of TKCC05 cells ([1]; CDCP1 expressing cells): very sensitive | response of normal human pancreatic stellate cells ([1]; CDCP1 non-expressing cells): unresponsive | time to phosphorylation of CDCP1-Y734 and Src-Y416 [2]: ≤ 1 h | survival of cells [3]: about 20%
